The target of data set [1] is soluble αβ-tubulin heterodimer purified from bovine brain (bovine) (UniProt Q6B856).
Data set [2] has the same target. Put plainly: SEC.
Data set [3] has as its target GMPCPP-stabilized microtubules (unlabelled, polymerized bovine brain tubulin) (bovine, UniProt Q6B856 1-445). Put plainly: co-sedimentation.
For data set [4], the target named is soluble αβ-tubulin heterodimer purified from bovine brain (bovine) (UniProt Q6B856). Put plainly: AUC.
Data set [5] concerns the molecule itself. The data set can be described thus: AUC.

B1: full-length S. pombe Cls1p (residues 1-1462) (natural protein, UniProt O42874 1-1462, looked up)
chain: MADKDAQDFLKFLKSNASTDEKTRCLDTLRSFFNKNNIPNADLGLFVECFRLALTTVNPLLLRSSVACFETFLRRLRAQYPTWLKFRVPMLKNLVIDHIASRDLQKRVLNILIDLWHFNPSEIEKSLIHLSTTSKSAETRIQCFKWFVLAHNAHLSFDVKSLRPALYINLENANPSVREEAKEVLLLIYKNLSTSAKMQFITDVETTSGLRREILQSLVEELSLISSSSEVIIVQNSASSFQPAPFMTAVATLYPGVELENVKPLLANFSKQLEQDSASMLPAFEGRETEQNWSVRQDSVLRLRQYLRGNACIDYLPELLSVLKTLLPGILLALLSLRTTLSSSAIQLIKEMAIILKSNIDPFLELILPNLLKVCSVTKKLASQAANVTFAAILVNCGVLSRNLSFISLAAHDTNAQLRVFSSNWIFMLISLSPELKNLASLQTNLKAFEKLICRGLADSNSQVREVYRKSFWKLSEYFPSVQEELTNTLEPSVLKQLHLANPNRQAASFNFSGPKRAPIRPLSNLRSFSKSQKEETSSNSSNSSGTRRLGLPQRATPASRERVLPYTRSQAFHSTSLPPSLPSGHSPSIAIPSKRSVSATIKDESKTFELLKNIQRKYELILSGSSVDLPSAEFLSSNLTDALYSGSSICYSLIFSHSLLDLTFQYVDIASLLSQFLLCVYDPSNVGHSFALASFPYVKSHYDAHKYFPIVFDVLMNISNMAPHVKVFPFNTNQKRLIIHGCLLWLKEISDTKLNQLENKPFFVTDKLRYYSSKILAMTAKTKLTSKNWIPLSGLLFSLRAHDTFMFDGLLDRLNEESRTKLVSSWSKQDAFDYSKSSTHQEHLSKNLPTLNTSSSSNSSQTDLLVPHGKGETKETEMQSPIESKEGLLSKDTHIESPQGTSLEKENEEEGKNPVESNCSEESLDDHNIDQTLVNKKETLAQDSESLLQKNNALNEKGFENQFGLSSSAAKVLNKDTLDHVSGPISNSVSSSFKDFTRTPFKEINGERETGFELTSYVNALSKKDDINVQKTENVDESVGLNAMFMDNVNQDSLNSVDQSSGKDKLLLTSSTPNKPTTFFMPANEEILGSPAKDYDIHDQSYSVHELHSENMRENVGQSSLIYNNRDYMNTPMNDFSLSFSEIKGGILESPVESPMTGTISPIDADESVLHDIPAYESLNKSESNKYQEQAYSTPLHHTLNVLPKNKWILSRMHKMENGSPINVDKNLDDAVAALEAAVKELNDGSVNTKTLKFCIKVCKETPSMLYHSHGLLPAILHYIESNNSAMHISDCLILLHEFLVQGYQGVDMHTYHNIICILIEKAEKCKDEPVILAGIEDNITLIAEIADLQGLYEFTQQRLQSLNTETGEKSAPLLLMLLSAILMRLKDLEFLETKDLLRHVVLKYIDHTNPEIRKATFNVCLAVNTIVNNVDETFSILGGLNEGQRLLFMHYLKMKSDEKN
The term stoichiometry N denotes the number of molecules, sites or subunits per partner or assembly. Take B1: in data set [1], the MT rescue frequency in TIRF dynamics assay, 6 μM tubulin, Cls1p 20 nM to 140 nM was 2.15 rescues/min. For the same molecule, in data set [2], the stoichiometry N (Cls1p molecules per αβ-tubulin dimer) amounted to 2. The “stoichiometry N” value in data set [3] was ~6 polymerized tubulin dimers per Cls1p monomer.

B2: Cls1p-GFP (full-length Cls1p with GFP fused to its C-terminus) (natural protein, S. pombe, UniProt O42874 1-1462, looked up)
chain: MADKDAQDFLKFLKSNASTDEKTRCLDTLRSFFNKNNIPNADLGLFVECFRLALTTVNPLLLRSSVACFETFLRRLRAQYPTWLKFRVPMLKNLVIDHIASRDLQKRVLNILIDLWHFNPSEIEKSLIHLSTTSKSAETRIQCFKWFVLAHNAHLSFDVKSLRPALYINLENANPSVREEAKEVLLLIYKNLSTSAKMQFITDVETTSGLRREILQSLVEELSLISSSSEVIIVQNSASSFQPAPFMTAVATLYPGVELENVKPLLANFSKQLEQDSASMLPAFEGRETEQNWSVRQDSVLRLRQYLRGNACIDYLPELLSVLKTLLPGILLALLSLRTTLSSSAIQLIKEMAIILKSNIDPFLELILPNLLKVCSVTKKLASQAANVTFAAILVNCGVLSRNLSFISLAAHDTNAQLRVFSSNWIFMLISLSPELKNLASLQTNLKAFEKLICRGLADSNSQVREVYRKSFWKLSEYFPSVQEELTNTLEPSVLKQLHLANPNRQAASFNFSGPKRAPIRPLSNLRSFSKSQKEETSSNSSNSSGTRRLGLPQRATPASRERVLPYTRSQAFHSTSLPPSLPSGHSPSIAIPSKRSVSATIKDESKTFELLKNIQRKYELILSGSSVDLPSAEFLSSNLTDALYSGSSICYSLIFSHSLLDLTFQYVDIASLLSQFLLCVYDPSNVGHSFALASFPYVKSHYDAHKYFPIVFDVLMNISNMAPHVKVFPFNTNQKRLIIHGCLLWLKEISDTKLNQLENKPFFVTDKLRYYSSKILAMTAKTKLTSKNWIPLSGLLFSLRAHDTFMFDGLLDRLNEESRTKLVSSWSKQDAFDYSKSSTHQEHLSKNLPTLNTSSSSNSSQTDLLVPHGKGETKETEMQSPIESKEGLLSKDTHIESPQGTSLEKENEEEGKNPVESNCSEESLDDHNIDQTLVNKKETLAQDSESLLQKNNALNEKGFENQFGLSSSAAKVLNKDTLDHVSGPISNSVSSSFKDFTRTPFKEINGERETGFELTSYVNALSKKDDINVQKTENVDESVGLNAMFMDNVNQDSLNSVDQSSGKDKLLLTSSTPNKPTTFFMPANEEILGSPAKDYDIHDQSYSVHELHSENMRENVGQSSLIYNNRDYMNTPMNDFSLSFSEIKGGILESPVESPMTGTISPIDADESVLHDIPAYESLNKSESNKYQEQAYSTPLHHTLNVLPKNKWILSRMHKMENGSPINVDKNLDDAVAALEAAVKELNDGSVNTKTLKFCIKVCKETPSMLYHSHGLLPAILHYIESNNSAMHISDCLILLHEFLVQGYQGVDMHTYHNIICILIEKAEKCKDEPVILAGIEDNITLIAEIADLQGLYEFTQQRLQSLNTETGEKSAPLLLMLLSAILMRLKDLEFLETKDLLRHVVLKYIDHTNPEIRKATFNVCLAVNTIVNNVDETFSILGGLNEGQRLLFMHYLKMKSDEKN
On to B2, for which the stoichiometry N (tubulin dimer per complex) in data set [4] came to 1. In addition, the “stoichiometry N” value in data set [5] is 2.

B3: Cls1p^604 (residues 1-604) (domain or fragment, S. pombe, UniProt O42874 1-604, looked up)
chain: MADKDAQDFLKFLKSNASTDEKTRCLDTLRSFFNKNNIPNADLGLFVECFRLALTTVNPLLLRSSVACFETFLRRLRAQYPTWLKFRVPMLKNLVIDHIASRDLQKRVLNILIDLWHFNPSEIEKSLIHLSTTSKSAETRIQCFKWFVLAHNAHLSFDVKSLRPALYINLENANPSVREEAKEVLLLIYKNLSTSAKMQFITDVETTSGLRREILQSLVEELSLISSSSEVIIVQNSASSFQPAPFMTAVATLYPGVELENVKPLLANFSKQLEQDSASMLPAFEGRETEQNWSVRQDSVLRLRQYLRGNACIDYLPELLSVLKTLLPGILLALLSLRTTLSSSAIQLIKEMAIILKSNIDPFLELILPNLLKVCSVTKKLASQAANVTFAAILVNCGVLSRNLSFISLAAHDTNAQLRVFSSNWIFMLISLSPELKNLASLQTNLKAFEKLICRGLADSNSQVREVYRKSFWKLSEYFPSVQEELTNTLEPSVLKQLHLANPNRQAASFNFSGPKRAPIRPLSNLRSFSKSQKEETSSNSSNSSGTRRLGLPQRATPASRERVLPYTRSQAFHSTSLPPSLPSGHSPSIAIPSKRSVSATIKD
With B3, in data set [3], the “stoichiometry N” value is ~3 polymerized tubulin dimers per Cls1 molecule.

The values are drawn from paper PMC3156696 (Developmental cell, 2010).
